Data from IntAct's records for PubMed 29072299.

B1: Mothers against decapentaplegic homolog 4 (Mus musculus), P97471 (parent)
chain: MDNMSITNTPTSNDACLSIVHSLMCHRQGGESETFAKRAIESLVKKLKEKKDELDSLITAITTNGAHPSKCVTIQRTLDGRLQVAGRKGFPHVIYARLWRWPDLHKNELKHVKYCQYAFDLKCDSVCVNPYHYERVVSPGIDLSGLTLQSNAPSMLVKDEYVHDFEGQPSLPTEGHSIQTIQHPPSNRASTETYSAPALLAPAESNATSTTNFPNIPVASTSQPASILAGSHSEGLLQIASGPQPGQQQNGFTAQPATYHHNSTTTWTGSRTAPYTPNLPHHQNGHLQHHPPMPPHPGHYWPVHNELAFQPPISNHPAPEYWCSIAYFEMDVQVGETFKVPSSCPVVTVDGYVDPSGGDRFCLGQLSNVHRTEAIERARLHIGKGVQLECKGEGDVWVRCLSDHAVFVQSYYLDREAGRAPGDAVHKIYPSAYIKVFDLRQCHRQMQQQAATAQAAAAAQAAAVAGNIPGPGSVGGIAPAISLSAAAGIGVDDLRRLCILRMSFVKGWGPDYPRQSIKETPCWIEIHLHRALQLLDEVLHTMPIADPQPLD
partner: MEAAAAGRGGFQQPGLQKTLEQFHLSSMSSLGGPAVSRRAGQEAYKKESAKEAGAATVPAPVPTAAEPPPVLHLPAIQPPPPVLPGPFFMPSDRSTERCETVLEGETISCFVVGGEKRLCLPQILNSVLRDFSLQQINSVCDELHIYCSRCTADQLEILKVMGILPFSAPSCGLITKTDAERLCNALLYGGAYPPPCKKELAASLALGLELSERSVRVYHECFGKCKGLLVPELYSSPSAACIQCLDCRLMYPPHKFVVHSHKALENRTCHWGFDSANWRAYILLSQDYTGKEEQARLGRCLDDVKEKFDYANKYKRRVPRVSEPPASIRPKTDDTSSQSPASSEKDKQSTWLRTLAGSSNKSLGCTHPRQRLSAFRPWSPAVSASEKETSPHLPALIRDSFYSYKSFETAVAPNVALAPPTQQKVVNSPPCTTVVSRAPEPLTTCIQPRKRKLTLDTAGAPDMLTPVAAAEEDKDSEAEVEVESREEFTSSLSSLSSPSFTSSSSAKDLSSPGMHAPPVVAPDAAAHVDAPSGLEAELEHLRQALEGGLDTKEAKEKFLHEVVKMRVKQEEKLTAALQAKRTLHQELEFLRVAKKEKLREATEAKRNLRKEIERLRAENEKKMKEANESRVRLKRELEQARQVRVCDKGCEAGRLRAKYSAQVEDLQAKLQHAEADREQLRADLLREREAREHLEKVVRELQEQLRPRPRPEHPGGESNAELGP

Variants of: B1
Conditions: with ski_mouse Ski

effect of a mutation on the interaction	Variant
disrupting interaction strength	A432E
disrupting interaction strength	Y429A
